Measured values from patent US20030186281A1, “Modified tetracycline repressor protein compositions and methods of use” (priority 2001, published 2003).
Residue numbers refer to the chain shown, from its start. Names may count otherwise.

B1: TetRrevAtc4-5: revTetR(BD) I59F A61S H64Q A97T (protein)
chain: MSRLDKSKVINSALELLNEVGIEGLTTRKLAQKLGVEQPTLYWHVKNKRALLDALAVEFLSRHQDYSLPAAGESWQSFLRNNAMSFRRALLRYRDGTKVHLGTRPDEKQYDTVETQLRFMTENGFSLRDGLYAISAVSHFTLGAVLEQQEHTAALTDRPAAPDENLPPLLREALQIMDSDDGEQAFLHGLESLIRGFEVQLTALLQIV
modifications: Modified tetracycline repressor
notes: revTetR(BD) I59F A61S H64Q A97T
B2: TetRrev6-25: revTetR(BD) Y93S D95E G102A (protein)
chain: B1 chain with F59I, S61A, Q64H, Y93S, D95E, T97A, G102A
modifications: Modified tetracycline repressor
notes: revTetR(BD) Y93S D95E G102A
B3: TetRrev6-2: revTetR(BD) D95G G96R H100L (protein)
chain: B1 chain with F59I, S61A, Q64H, D95G, G96R, T97A, H100L
modifications: Modified tetracycline repressor
notes: revTetR(BD) D95G G96R H100L
B4: TetRrev6-26: revTetR(BD) Y93F G96W A97E H100N (protein)
chain: B1 chain with F59I, S61A, Q64H, Y93F, G96W, T97E, H100N
modifications: Modified tetracycline repressor
notes: revTetR(BD) Y93F G96W A97E H100N
B5: TetRrev6-17: revTetR(BD) R94G G96W (protein)
chain: B1 chain with F59I, S61A, Q64H, R94G, G96W, T97A
modifications: Modified tetracycline repressor
notes: revTetR(BD) R94G G96W
B6: TetRrev6-32: revTetR(BD) L79V A97T K98R V99G (protein)
chain: B1 chain with F59I, S61A, Q64H, L79V, K98R, V99G
modifications: Modified tetracycline repressor
notes: revTetR(BD) L79V A97T K98R V99G
B7: TetRrevAtc4-61: revTetR(BD) L51L A56V I59H R62L (protein)
chain: B1 chain with A56V, F59H, S61A, R62L, Q64H, T97A
modifications: Modified tetracycline repressor
notes: revTetR(BD) L51L A56V I59H R62L
B8: TetRrev6-3: revTetR(BD) V99G H100P (protein)
chain: B1 chain with F59I, S61A, Q64H, T97A, V99G, H100P
modifications: Modified tetracycline repressor
notes: revTetR(BD) V99G H100P
B9: TetRrevDox4-1: revTetR(BD) D53E A54S A61P (protein)
chain: B1 chain with D53E, A54S, F59I, S61P, Q64H, T97A
modifications: Modified tetracycline repressor
notes: revTetR(BD) D53E A54S A61P
B10: TetRrev6-33: revTetR(BD) A97T K98R V99G (protein)
chain: B1 chain with F59I, S61A, Q64H, K98R, V99G
modifications: Modified tetracycline repressor
notes: revTetR(BD) A97T K98R V99G
B11: TetRrevAtc4-71: revTetR(BD) D53T L55M 56P A61S (protein)
chain: B1 chain with D53T, L55M, A56P, F59I, Q64H, T97A
modifications: Modified tetracycline repressor
notes: revTetR(BD) D53T L55M 56P A61S
B12: TetRrevAtc4-52: revTetR(BD) D53F A54T L55M I59S H63Q (protein)
chain: B1 chain with D53F, A54T, L55M, F59S, S61A, H63Q, Q64H, T97A
modifications: Modified tetracycline repressor
notes: revTetR(BD) D53F A54T L55M I59S H63Q
B13: TetRrevAtc4-53: revTetR(BD) D53F L55M I59S H63Q (protein)
chain: B1 chain with D53F, L55M, F59S, S61A, H63Q, Q64H, T97A
modifications: Modified tetracycline repressor
notes: revTetR(BD) D53F L55M I59S H63Q
B14: TetRrevAtc4-6: revTetR(BD) D53Y L55L A56P R62L (protein)
chain: B1 chain with D53Y, A56P, F59I, S61A, R62L, Q64H, T97A
modifications: Modified tetracycline repressor
notes: revTetR(BD) D53Y L55L A56P R62L
B15: TetRrev04-4: revTetR(BD) G96E V113A (protein)
chain: B1 chain with F59I, S61A, Q64H, G96E, T97A, V113A
modifications: Modified tetracycline repressor
notes: revTetR(BD) G96E V113A
B16: TetRrevAtc4-9b: revTetR(BD) A56P V57L E58V L60L (protein)
chain: B1 chain with A56P, V57L, E58V, F59I, S61A, Q64H, T97A
modifications: Modified tetracycline repressor
notes: revTetR(BD) A56P V57L E58V L60L
B17: TetRrevAtc4-7: revTetR(BD) I59R L55L A61E H64N (protein)
chain: B1 chain with F59R, S61E, Q64N, T97A
modifications: Modified tetracycline repressor
notes: revTetR(BD) I59R L55L A61E H64N
B18: TetRrevDox4-2: revTetR(BD) D53E A54S I59M A61P (protein)
chain: B1 chain with D53E, A54S, F59M, S61P, Q64H, T97A
modifications: Modified tetracycline repressor
notes: revTetR(BD) D53E A54S I59M A61P
B19: TetRrev6-13: revTetR(BD) G96R L101I (protein)
chain: B1 chain with F59I, S61A, Q64H, G96R, T97A, L101I
modifications: Modified tetracycline repressor
notes: revTetR(BD) G96R L101I
B20: TetRrevAtc4-67: revTetR(BD) K48K D53Y A56G E58G (protein)
chain: B1 chain with D53Y, A56G, E58G, F59I, S61A, Q64H, T97A
modifications: Modified tetracycline repressor
notes: revTetR(BD) K48K D53Y A56G E58G
B21: TetRrev6-31: revTetR(BD) G96Q G102S (protein)
chain: B1 chain with F59I, S61A, Q64H, G96Q, T97A, G102S
modifications: Modified tetracycline repressor
notes: revTetR(BD) G96Q G102S
B22: TetRrevAtc4-70: revTetR(BD) D53A A61P (protein)
chain: B1 chain with D53A, F59I, S61P, Q64H, T97A
modifications: Modified tetracycline repressor
notes: revTetR(BD) D53A A61P
B23: TetRrev04-1: revTetR(BD) G96E K98T (protein)
chain: B1 chain with F59I, S61A, Q64H, G96E, T97A, K98T
modifications: Modified tetracycline repressor
notes: revTetR(BD) G96E K98T
B24: TetRrevAtc4-9: revTetR(BD) L52M A56P V57L E58V L60L H188Y (protein)
chain: B1 chain with L52M, L55M, A56P, V57L, E58V, F59I, S61A, Q64H, T97A, H188Y
modifications: Modified tetracycline repressor
notes: revTetR(BD) L52M A56P V57L E58V L60L H188Y
B25: TetRrev6-23: revTetR(BD) D95E A97E (protein)
chain: B1 chain with F59I, S61A, Q64H, D95E, T97E
modifications: Modified tetracycline repressor
notes: revTetR(BD) D95E A97E
B26: TetRrev6-27: revTetR(BD) A71T G96E (protein)
chain: B1 chain with F59I, S61A, Q64H, A71T, G96E, T97A
modifications: Modified tetracycline repressor
notes: revTetR(BD) A71T G96E

tested on: tet operator sequence; experiment: β-galactosidase activity of a tetracycline-regulated promoter in transformed E. coli with revTetR, in the presence and absence of anhydrotetracycline (atc); format: cell-based, Escherichia coli; details: RevTetR isolate cultured in the absence of anhydrotetracycline (ATC)
How it was run: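 TetR(BD) chimera mutants (TetR(B) residues 1–50, TetR(D) 51–208) expressed in E. coli regulating a tet operator-controlled lacZ. β-Galactosidase measured in Miller units at 28 °C and 37 °C with and without anhydrotetracycline; reported as percent of maximal expression without Tet repressor.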

Question: For B1, which “β-Galactosidase Activity, Cultured Without ATC” value is on record?
Answer: Its value is 98.272.

Question: B2 was tested. Which “β-Galactosidase Activity, Cultured Without ATC” value did it give?
Answer: The value was 42.8584.

Question: For B3, which “β-Galactosidase Activity, Cultured Without ATC” value is on record?
Answer: The value was 95.487.

Question: For B4, which “β-Galactosidase Activity, Cultured Without ATC” value is on record?
Answer: Its value is 53.6535.

Question: Which “β-Galactosidase Activity, Cultured Without ATC” value does the source give for B5 here?
Answer: Its value is 56.5081.

Question: With B6 as the molecule, how does the “β-Galactosidase Activity, Cultured Without ATC” value read?
Answer: The value was 79.3731.

Question: Which “β-Galactosidase Activity, Cultured Without ATC” value does the source give for B7 here?
Answer: Its value is 88.785.

Question: How did the “β-Galactosidase Activity, Cultured Without ATC” value turn out when B8 was run?
Answer: Its value is 23.0695.

Question: How did the “β-Galactosidase Activity, Cultured Without ATC” value turn out when B9 was run?
Answer: Its value is 36.03.

Question: B10 was tested. Which “β-Galactosidase Activity, Cultured Without ATC” value did it give?
Answer: The value was 108.964.

Question: How did the “β-Galactosidase Activity, Cultured Without ATC” value turn out when B11 was run?
Answer: The value was 70.197.

Question: B12 was tested. Which “β-Galactosidase Activity, Cultured Without ATC” value did it give?
Answer: The value was 105.367.

Question: With B13 as the molecule, how does the “β-Galactosidase Activity, Cultured Without ATC” value read?
Answer: Its value is 87.055.

Question: How did the “β-Galactosidase Activity, Cultured Without ATC” value turn out when B14 was run?
Answer: The value was 108.478.

Question: How did the “β-Galactosidase Activity, Cultured Without ATC” value turn out when B15 was run?
Answer: Its value is 99.655.

Question: Which “β-Galactosidase Activity, Cultured Without ATC” value does the source give for B16 here?
Answer: The value was 107.982.

Question: How did the “β-Galactosidase Activity, Cultured Without ATC” value turn out when B17 was run?
Answer: The value was 84.416.

Question: For B18, which “β-Galactosidase Activity, Cultured Without ATC” value is on record?
Answer: The value was 58.776.

Question: For B19, which “β-Galactosidase Activity, Cultured Without ATC” value is on record?
Answer: Its value is 15.7835.

Question: How did the “β-Galactosidase Activity, Cultured Without ATC” value turn out when B20 was run?
Answer: Its value is 61.815.

Question: Which “β-Galactosidase Activity, Cultured Without ATC” value does the source give for B21 here?
Answer: The value was 55.658.

Question: Which “β-Galactosidase Activity, Cultured Without ATC” value does the source give for B22 here?
Answer: The value was 16.119.

Question: How did the “β-Galactosidase Activity, Cultured Without ATC” value turn out when B23 was run?
Answer: Its value is 102.092.

Question: With B24 as the molecule, how does the “β-Galactosidase Activity, Cultured Without ATC” value read?
Answer: The value was 97.1039.

Question: How did the “β-Galactosidase Activity, Cultured Without ATC” value turn out when B25 was run?
Answer: Its value is 101.

Question: Which “β-Galactosidase Activity, Cultured Without ATC” value does the source give for B26 here?
Answer: The value was 108.105.

same assay, conditions: RevTetR isolate cultured in the presence of anhydrotetracycline (ATC)

Question: With B1 as the molecule, how does the “β-Galactosidase Activity, Cultured With ATC” value read?
Answer: Its value is 12.552.

Question: B2 was tested. Which “β-Galactosidase Activity, Cultured With ATC” value did it give?
Answer: The value was 4.136.

Question: With B3 as the molecule, how does the “β-Galactosidase Activity, Cultured With ATC” value read?
Answer: The value was 18.3.

Question: B4 was tested. Which “β-Galactosidase Activity, Cultured With ATC” value did it give?
Answer: The value was 6.9688.

Question: How did the “β-Galactosidase Activity, Cultured With ATC” value turn out when B5 was run?
Answer: The value was 12.5.

Question: How did the “β-Galactosidase Activity, Cultured With ATC” value turn out when B6 was run?
Answer: The value was 3.789.

Question: How did the “β-Galactosidase Activity, Cultured With ATC” value turn out when B7 was run?
Answer: Its value is 23.831.

Question: For B8, which “β-Galactosidase Activity, Cultured With ATC” value is on record?
Answer: The value was 1.3657.

Question: Which “β-Galactosidase Activity, Cultured With ATC” value does the source give for B9 here?
Answer: Its value is 5.627.

Question: B10 was tested. Which “β-Galactosidase Activity, Cultured With ATC” value did it give?
Answer: The value was 2.984.

Question: B11 was tested. Which “β-Galactosidase Activity, Cultured With ATC” value did it give?
Answer: Its value is 7.372.

Question: With B12 as the molecule, how does the “β-Galactosidase Activity, Cultured With ATC” value read?
Answer: Its value is 5.575.

Question: B13 was tested. Which “β-Galactosidase Activity, Cultured With ATC” value did it give?
Answer: Its value is 6.945.

Question: With B14 as the molecule, how does the “β-Galactosidase Activity, Cultured With ATC” value read?
Answer: The value was 23.873.

Question: B15 was tested. Which “β-Galactosidase Activity, Cultured With ATC” value did it give?
Answer: The value was 19.878.

Question: Which “β-Galactosidase Activity, Cultured With ATC” value does the source give for B16 here?
Answer: Its value is 1.0594.

Question: For B17, which “β-Galactosidase Activity, Cultured With ATC” value is on record?
Answer: The value was 27.649.

Question: With B18 as the molecule, how does the “β-Galactosidase Activity, Cultured With ATC” value read?
Answer: The value was 9.547.

Question: How did the “β-Galactosidase Activity, Cultured With ATC” value turn out when B19 was run?
Answer: The value was 2.5043.

Question: How did the “β-Galactosidase Activity, Cultured With ATC” value turn out when B20 was run?
Answer: Its value is 12.616.

Question: For B21, which “β-Galactosidase Activity, Cultured With ATC” value is on record?
Answer: Its value is 35.26.

Question: B22 was tested. Which “β-Galactosidase Activity, Cultured With ATC” value did it give?
Answer: The value was 11.125.

Question: B23 was tested. Which “β-Galactosidase Activity, Cultured With ATC” value did it give?
Answer: Its value is 44.145.

Question: Which “β-Galactosidase Activity, Cultured With ATC” value does the source give for B24 here?
Answer: Its value is 1.8695.

Question: For B25, which “β-Galactosidase Activity, Cultured With ATC” value is on record?
Answer: The value was 49.

Question: Which “β-Galactosidase Activity, Cultured With ATC” value does the source give for B26 here?
Answer: Its value is 44.43.
